The subject of this series is MS2 coat protein. Put plainly: apparent KD of MS2 coat protein; designed switch direction (-1 OFF switch, 1 ON switch): -1; higher = weaker reporter binding. The gist of the method:
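Three titration conditions were used: no input, 200 uM small-molecule ligand, and an oligonucleotide input. In each, SNAP-549-labelled MS2 coat protein was raised from 0.7 or 1.5 nM, doubling, to 3 µM over designed RNA switches transcribed on Illumina chips by stalled E. coli RNA polymerase. Curve fits of normalised cluster fluorescence gave values whose per-design median over clusters is the apparent KD.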

Setting [1] is: Eterna round: R95, input ligand: microRNA oligo, concentration not stated.
[2] abbreviates: input ligand: microRNA oligo, concentration not stated.

As for “UCCUCACAUGAGGAUCACCCAUGUUAGGAUAUCUCGGUGCCCUGCAGGCAGUGGCACCAGAGAAGGAACGUGCA [Querra] (puzzle: Exclusion 1)”, the “apparent KD of MS2 coat protein” value under setting [1] worked out at 18.8 nM.

With “UCCUUACUGGUCAGGAUAUACAUUCGCGAGUGGGUGUAGAAGGGACAUGAGGAUCACCCAUGUACGUUACAUCC [alecazam54f] (Eterna round: R97, puzzle: Brourd's mod of Exclusion 4)”, the “apparent KD of MS2 coat protein” value (input ligand: FMN 200 uM) came to 18.3 nM and the “apparent KD of MS2 coat protein” value (input ligand: none) worked out at 20.5 nM. In the case of “UCGACGUCGUCAGGAUAUAGUUUUAAUGUCAUGCUUUUGUUUUUACAUGAGGAUCACCCAUGUCGCUAGAAGGGACUAAAGAUU [JR_ExcNG2_Sub013] (Eterna round: R96, puzzle: Exclusion NG 2)”, the “apparent KD of MS2 coat protein” value (input ligand: FMN 200 uM) came out at 36.7 nM, the “apparent KD of MS2 coat protein” value under setting [2] amounted to 34.1 nM and the “apparent KD of MS2 coat protein” value (input ligand: none) is 41.7 nM. “UCGAGGUCAGGAUAUACAUGAGGAUCACCCAUGUUGAGAUAAGGUAGGAAAAGAGUAGGUAGAAGGGACGAGAG [JR_Exclu3_Sub047] (puzzle: Exclusion 3)”: the “apparent KD of MS2 coat protein” value under setting [1] is 27.3 nM. Consider “UCGCGAAGAGGAUAUACAUAGAAAUAGAUUCAUGUAAAACUACAUGAGGAUCACCCAUGUAGAAGGCUUUGCGU [Mat - Exclusion 2 - JL Mod - D60] (Eterna round: R97, puzzle: Exclusion 2)”, for which the “apparent KD of MS2 coat protein” value reads like this: (input ligand: FMN 200 uM) 108 nM; (input ligand: none) 17 nM. On to “UCGCUCCGUGUAGGAUAUCGCUGUAUGAUGCGGCGAGAAGGACAUGAGGAUCACCCAUGUAUGUUAUUAUCACGCGUGGCGCAA [Design 64] (Eterna round: R96, puzzle: Exclusion NG 1)”, for which the “apparent KD of MS2 coat protein” value by setting is: (input ligand: FMN 200 uM) 21.8 nM; under setting [2], 11.6 nM; (input ligand: none) 17.5 nM. For “UCGGCGCGAGGAUAUACGUUUGCUUUUUGGGAUCGUUGCGUACAUGAGGAUCACCCAUGUAGAAGGCGCGCCGC [Apr-15 SS2-26] (puzzle: Exclusion 2)”, under setting [1], the “apparent KD of MS2 coat protein” value amounted to 15.9 nM.

Consider “UCGGCGCGAGGAUAUGCGGCUGGUGCUUCGGGCUCUGGCGUACAUGAGGAUCACCCAUGUAGAAGGCGCGCCGC [Apr-15 SS2-42] (puzzle: Exclusion 2)”, for which the “apparent KD of MS2 coat protein” value under setting [1] stood at 10.5 nM. In the case of “UCGGUGUCAGGAUAUACAUGAGGAUCACCCAUGUAGAGAGAAGAUAGGGAAAGAGUAGGUAGAAGGGACGAGAG [JR_Exclu3_Sub045] (puzzle: Exclusion 3)”, the “apparent KD of MS2 coat protein” value by setting is: (Eterna round: R95, input ligand: FMN 200 uM) 43.7 nM; under setting [1], 29.1 nM; (Eterna round: R95, input ligand: none) 41.7 nM. Take “UCUCAGUUAGGAUAUUUAAUGUGCCGUGAGGACACGCCUUUGAAGAAGGGACAUGAGGAUCACCCAUGUGAGUA [Eternabot (L2) Solution 44] (Eterna round: R97, puzzle: Exclusion 4)”: the “apparent KD of MS2 coat protein” value is, setting by setting: (input ligand: FMN 200 uM) 47.3 nM; (input ligand: none) 26.3 nM. Take “UCUCGACAUGAGGAUCACCCAUGUCAGGAUAUUGUGUUUGAGGUUUUUUACCUUUUGACAAGAAGGGAUGUGUG [LRO-Excl1-22] (puzzle: Exclusion 1)”: the “apparent KD of MS2 coat protein” value under setting [1] worked out at 28.6 nM. As to “UCUCGCGGGCAAGGAUAUCCUACGUUGUUCUGGCCCGUGUAUGUUACAUGAGGAUCACCCAUGUGGGAGAAGGUGCACCAGGGC [Design 39] (Eterna round: R96, puzzle: Exclusion NG 2)”, the “apparent KD of MS2 coat protein” value is, setting by setting: (input ligand: FMN 200 uM) 72.8 nM; under setting [2], 43.8 nM; (input ligand: none) 77.4 nM. “UCUUAGUCAGGAUAUACAUGAGGAUCACCCAUGUAAAAUUUUAAUUUAAUUUUAAGGUGUAGAAGGGACCACUU [Ex3 #19] (Eterna round: R97, puzzle: Exclusion 3)”: the “apparent KD of MS2 coat protein” value by setting is: (input ligand: FMN 200 uM) 22.2 nM; (input ligand: none) 29 nM. For “UCUUAUUGAGGAUAUACAUUAAAAUACAUGAGGAUCACCCAUGUUCUUCAAUGUAUAUAUGUAGAAGGCAGAAUAU [Mat - Exclusion 5 - JL Mod - D27] (Eterna round: R97, puzzle: Exclusion 5)” the same measures were 61.2 nM and 28.8 nM.

On to “UCUUAUUGCAAGGAUAUGCAAUUUAUUUUUUAUGCAGAAGGUGCAACAUGAGGAUCACCCAUGUUUCCGGGCAU [JR_E6_Sub037] (puzzle: Exclusion 6)”, for which the “apparent KD of MS2 coat protein” value under setting [1] stood at 13.5 nM. Same read-out and setting: the value for “UCUUAUUGCAAGGAUAUGCUAUUUAUUUUUUUUGCAGAAGGUGCAACAUGAGGAUCACCCAUGUUUCCGGGCAU [JR_E6_Sub036] (puzzle: Exclusion 6)” was 20.3 nM. Consider “UCUUCAGCCAAGUUCACAUACAUGAGGAUCACCCAUGUUGCGUAACGCAUGCAUAUCCUAGUUGCUCGUUCUACAGU [Eternabot (L1) Solution 6] (Eterna round: R97, puzzle: Sensor, turn-off variant 1)”, for which the “apparent KD of MS2 coat protein” value is 26.4 nM (input ligand: FMN 200 uM) and 33.1 nM (input ligand: none). “UCUUUGUGAGGAUAUCAGUAGUAAAUAAAUAAAAUUACUACUGAGAAGGCACAUGAGGAUCACCCAUGUUCCUU [salish99_ex3_r3_091] (puzzle: Exclusion 4)”: under setting [1], the “apparent KD of MS2 coat protein” value worked out at 13.5 nM.

“UGAAGGUCAGGAUAUGAGUCUAUCUGACGCAGACAUAGACAUUAGAAGGGACAUGAGGAUCACCCAUGUGGGAC [Eternabot (L1) Solution 29] (Eterna round: R97, puzzle: Exclusion 4)”: the “apparent KD of MS2 coat protein” value was 106 nM (input ligand: FMN 200 uM) and 84.8 nM (input ligand: none). Regarding “UGAAUGUCAGGAUAUCGUGCAUACAACGAAAGUUCUAUGUGCGAGAAGGGACAUGAGGAUCACCCAUGUCUUCG [Omei Ex4 A15] (Eterna round: R97, puzzle: Exclusion 4)”, the “apparent KD of MS2 coat protein” value (input ligand: FMN 200 uM) amounted to 50.7 nM and the “apparent KD of MS2 coat protein” value (input ligand: none) came out at 18.3 nM.

Regarding “UGAGCUACAGGAUAUAUGUGGCGACCGUGAGGUCGAAGGUUACAUGAGGAUCACCCAUGUAGAAGGGUAGUUCU [Mat - Exclusion 2 - JL Mod - D20] (Eterna round: R97, puzzle: Exclusion 2)”, the “apparent KD of MS2 coat protein” value is 311 nM (input ligand: FMN 200 uM) and 284 nM (input ligand: none). The like results for “UGAGCUUCAGGAUAUACGUGACGACCGUGAGGUCGAAGGUUACAUGAGGAUCACCCAUGUAGAAGGGAAGUUCU [Mat - Exclusion 2 - JL Mod - D27] (Eterna round: R97, puzzle: Exclusion 2)” were, in that order, 70.8 nM and 27.5 nM.

Consider “UGAGUGCUGCGAGGAUAUACAUGAGGAUCACCCAUGUUUACCUGUGAGGCAAAGCCUCACAGGUUGUAGAAGGCGCAGUACUCU [Mat - Exclusion NG 2 - Mod of JL - D41] (Eterna round: R96, puzzle: Exclusion NG 2)”, for which the “apparent KD of MS2 coat protein” value reads like this: (input ligand: FMN 200 uM) 16 nM; under setting [2], 11.3 nM; (input ligand: none) 18.6 nM. In the case of “UGAUCAGACCGAGGAUAUACAUGGAGGACCCACGUGAGUGGGUCCACUACAUGAGGAUCACCCAUGUAGAAGGCGGUCUGAUCU [JL ENG2 1.91] (Eterna round: R96, puzzle: Exclusion NG 2)”, the “apparent KD of MS2 coat protein” value (input ligand: FMN 200 uM) worked out at 1880 nM, the “apparent KD of MS2 coat protein” value under setting [2] turned out to be 91.3 nM and the “apparent KD of MS2 coat protein” value (input ligand: none) came to 128 nM. “UGAUUGAUUAACAGAUUAUACAUGAGGAUCACCCAUGUAGGUCCUACGUGCCCUUUAAGCAGCUCGUCUUAUUCCCA [Sensor-V1 #69] (Eterna round: R97, puzzle: Sensor, turn-off variant 1)”: the “apparent KD of MS2 coat protein” value came to 43.7 nM (input ligand: FMN 200 uM) and 45.6 nM (input ligand: none).
